Results on 10 molecules are retold here after patent publication US20190225691A1 (SHANGHAI HENLIUS BIOTECH, published 2019).

Test [1] concerns the target T1, human PD-L1 ECD-His (human, UniProt Q9NZQ7 19-238).
T1 construct: extracellular domain; Analyte in all SPR and BLI runs; also called hPD-L1_ECD-His; hPD-L1 ECD-His; not shown: His tag
The experiment in a line: SPR, 25 C, antibody captured by anti-human IgG Fc, hPD-L1_ECD-His analyte, 1:1 fit. The procedure:
Experiments were carried out at 25° C., and measurements were made with serial dilutions of hPD-L1_ECD-His from 55.4 nM to 11.1 nM passing over the captured antibodies in HBS-P+ buffer supplemented with 0.1% (w/v) BSA with a flow rate of […]. All data were analyzed with the evaluation software and curves were fit with a 1:1 Langmuir binding model. Data are representative of two independent experiments performed in duplicate.
For orientation: SPR reads the build-up and loss of mass on a sensor chip optically.

The target of test [2] is T2, human PD-L1 on cells (PHA-activated human T cells); PD-L1-transfected CHO-S cells; A375 melanoma cells; … (human, UniProt Q9NZQ7 19-290).
T2 construct: whole, on cells; also called PD-L1 expressing T cells; PD-L1 expressing CHO-S cells
T2 sequence (Q9NZQ7 19-290): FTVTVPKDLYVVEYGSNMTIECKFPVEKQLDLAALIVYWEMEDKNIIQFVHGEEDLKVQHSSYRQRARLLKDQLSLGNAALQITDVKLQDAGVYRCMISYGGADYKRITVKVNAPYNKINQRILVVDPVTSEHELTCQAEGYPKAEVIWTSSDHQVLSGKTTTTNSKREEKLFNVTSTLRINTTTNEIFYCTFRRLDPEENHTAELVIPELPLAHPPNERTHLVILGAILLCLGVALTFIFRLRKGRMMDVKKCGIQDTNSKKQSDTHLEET
As to the kind of experiment: flow cytometry on PHA-activated human CD3+ T cells, FITC-labeled anti-human IgG Fcγ, MFI. The procedure:
Human T cells were isolated from PBMC using MagniSortTM Human T Cell Enrichment Kit (eBioscience). Isolated T cells were activated by 5 μg/mL phytohemagglutinin (PHA) for 3 days to stimulate the PD-L1 expression. Activated T cells were collected and incubated in FACS buffer (PBS with 2% FBS) with human Fc blocker (eBioscience) for 20 minutes at 4° C. Binding of anti-PD-L1 monoclonal antibody was assessed by incubating the activated T cells with the serial-diluted antibodies in FACS buffer. The cells were washed with flow buffer and the binding was detected with a FITC-labeled rabbit anti-human IgG FcγAb. Cells were also stained with mouse anti-human CD3 PE-Cy7 (eBioscience) for gating CD3-positive T cells. Flow cytometric analyses were performed using the Cytomics FC 500 (Beckman Coulter Inc.).

Test [3] has as its target T2, human PD-L1 on cells (PHA-activated …). The experiment in a line: flow cytometry blocking assay: PD-L1 expressing CHO-S cells incubated with antibody, then biotin-labeled PD-1-Fc and streptavidin-PE; MFI of bound PD-1. The protocol: PD-L1 expressing CHO-S cells were suspended in FACS buffer (PBS with 4% FBS). Various concentrations of tested antibodies were added to the cell suspension (3.5E5 cells/well) and incubated at 4° C. for 30 minutes. […] The cells were washed and then stained with streptavidin-PE at 4° C. for 30 minutes. Flow cytometric analyses were performed using the Cytomics FC 500 (Beckman Coulter Inc.).
Anti-PD-L1 reference antibody and Avastin were used as the positive and negative control, respectively.
Background: Flow cytometry measures light scatter and fluorescence of single cells or particles in a stream.

Test [4] deals with T1, human PD-L1 ECD-His. The experiment in a line: SPR, ratio of KD to ref-1.
Test [5] concerns the target T1, human PD-L1 ECD-His. As to the kind of experiment: SPR, hPD-L1-His, PL3 variants.

Usually Kd stands for a measure of binding affinity in units of concentration. A higher Kd goes with weaker binding. One may read the koff as the first-order rate constant of dissociation. The low end stands for a long-lived complex, the high end for a short-lived complex. Usually kon stands for a measure of how fast the partners come together. A low value points to slow association. In general, EC50 (read off the curve) refers to the concentration needed to bring the measured effect to its halfway point. A high value points to lower potency in that assay.

T1 sequence (Q9NZQ7 19-238): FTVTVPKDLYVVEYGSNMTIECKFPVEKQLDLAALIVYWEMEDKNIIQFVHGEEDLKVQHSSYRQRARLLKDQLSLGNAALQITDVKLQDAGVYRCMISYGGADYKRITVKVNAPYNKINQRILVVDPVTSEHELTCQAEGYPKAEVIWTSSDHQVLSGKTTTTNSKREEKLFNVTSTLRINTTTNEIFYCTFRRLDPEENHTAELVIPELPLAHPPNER

B1: PL15 (full-length, N297A mutant human IgG1) (antibody, V domains shown)
VH: QVQLVQSGAEVKKPGSSVKVSCKASGGTFSSYTISWVRQAPGQGLEWMGRIIPILGIANYAQKFQGRVTITADKSTSTAYMELSSLRSEDTAVYYCARSRDGYSFGAFDIWGQGTLVTVSS
VL: QSVLTQPPSVSGAPGQRVTISCTGYSSNIGAGYDVHWYQHLPGTAPKLLIYGNSNRPSGVPDRFSGSKSGTSASLAITGLQAEDEADYYCQSYDNSLSVSVFGGGTKLTVLG
In test [1], B1 gave a dissociation constant Kd of 15 nM, an off-rate (koff) of 0.00933 s⁻¹ and a kon of 645000 M⁻¹ s⁻¹. In addition, the concentration giving a half-maximal response (EC50 (read off the curve)) in test [2] is roughly 0.03 µg/mL. The “IC50 (read off the curve)” value in test [3] was roughly 0.06 µg/mL.

B2: PL3#7 IgG2 (antibody, V domains shown)
VH: QVQLVQSGAEVKKPGSSVKVSCKASGGTFSSYPISWVRQAPGQGLEWIGRIIPILGIANYAQKFQGRVTITADKSTSTAYMELSSLRSEDTAVYYCARSRDGYAFGAFDIWGQGTLVTVSS
VL: QSVVTQPPPVSGAPGQRVTISCTGSSSNIGAGYDVHWYQQLPGTAPKLLIYGNSNRPSGVPDRFSGSKSGTSASLAITGLQAEDEADYYCQTYDSSLSARVVFGGGTKLTVL
notes: Human IgG2
As to B2, the “Improvement over ref-1” value in test [4] is 1.81 fold. In test [5], this molecule returned a Kd of 0.349 nM, a koff of 0.000327 s⁻¹ and a kon of 995000 M⁻¹ s⁻¹.

B3: PL3#7 IgG1 (antibody, V domains shown)
VH: QVQLVQSGAEVKKPGSSVKVSCKASGGTFSSYPISWVRQAPGQGLEWIGRIIPILGIANYAQKFQGRVTITADKSTSTAYMELSSLRSEDTAVYYCARSRDGYAFGAFDIWGQGTLVTVSS
VL: QSVVTQPPPVSGAPGQRVTISCTGSSSNIGAGYDVHWYQQLPGTAPKLLIYGNSNRPSGVPDRFSGSKSGTSASLAITGLQAEDEADYYCQTYDSSLSARVVFGGGTKLTVL
notes: Human IgG1
B3: the “Improvement over ref-1” value in test [4] turned out to be 1.38 fold. In test [5], this molecule gave a Kd of 0.457 nM, a koff of 0.000444 s⁻¹ and a kon of 997000 M⁻¹ s⁻¹.

B4: PL6 (full-length, N297A mutant human IgG1) (antibody, V domains shown)
VH: EVQLVQSGAEVKKPGSSVKVSCKASGGTFSSYTINWVRQAPGQGLEWVGKIIPILGIADYAQMFKGRVTITADKFTSTVYMELNSLRSEDTAVYYCARGGYVGYLNAFDIWGQGTMVTVSS
VL: QSVVTQPPSVSGAPGQRVTISCTGSSSNIGAGYDVHWYQQLPGTAPKLLIYGNSNRPSGVPDRFSGSKSGTSASLAITGLQAEDEADYYCQSYDSSLSGGVFGGGTKLTVLG
In test [1], B4 gave a Kd of 11.2 nM, a dissociation rate constant (koff) of 0.0122 s⁻¹ and a kon of 1.05e+06 M⁻¹ s⁻¹. The “IC50 (read off the curve)” value in test [3] is roughly 0.03 µg/mL.

B5: PL3#7 IgG4 (antibody, V domains shown)
VH: QVQLVQSGAEVKKPGSSVKVSCKASGGTFSSYPISWVRQAPGQGLEWIGRIIPILGIANYAQKFQGRVTITADKSTSTAYMELSSLRSEDTAVYYCARSRDGYAFGAFDIWGQGTLVTVSS
VL: QSVVTQPPPVSGAPGQRVTISCTGSSSNIGAGYDVHWYQQLPGTAPKLLIYGNSNRPSGVPDRFSGSKSGTSASLAITGLQAEDEADYYCQTYDSSLSARVVFGGGTKLTVL
notes: Human IgG4
For the molecule B5, the “Improvement over ref-1” value in test [4] was determined as 1.97 fold. Further, in test [5], the equilibrium dissociation constant (Kd) is 0.321 nM, the koff turned out to be 0.000362 s⁻¹ and the kon was 1.14e+06 M⁻¹ s⁻¹.

B6: PL3#1 mtIgG1 (N297A) (antibody, V domains shown)
VH: QVQLVQSGAEVKKPGSSVKVSCKASGGTFSSYRISWVRQAPGQGLEWMGRIIPILGIANYAQKFQGRVTITADKSTSTAYMELSSLRSEDTAVYYCARSRDGYSVGAFDSWGQGTLVTVSS
VL: QSVVTQPPPVSGAPGQRVTISCTGSSSNIGAGYDVHWYQQLPGTAPKLLIYGNSRRPSGVPDRFSGSKSGTSASLAITGLQAEDEADYYCQTYDSSLSRPVVFGGGTKLTVL
notes: N297A mutant human IgG1
In the case of B6, in test [4], the “Improvement over ref-1” value worked out at 1.73 fold. In test [5], the dissociation constant (Kd) came out at 0.366 nM, the koff was 0.000395 s⁻¹ and the association rate constant (kon) turned out to be 1.1e+06 M⁻¹ s⁻¹.

B7: PL3#1 IgG2 (antibody, V domains shown)
VH: QVQLVQSGAEVKKPGSSVKVSCKASGGTFSSYRISWVRQAPGQGLEWMGRIIPILGIANYAQKFQGRVTITADKSTSTAYMELSSLRSEDTAVYYCARSRDGYSVGAFDSWGQGTLVTVSS
VL: QSVVTQPPPVSGAPGQRVTISCTGSSSNIGAGYDVHWYQQLPGTAPKLLIYGNSRRPSGVPDRFSGSKSGTSASLAITGLQAEDEADYYCQTYDSSLSRPVVFGGGTKLTVL
notes: Human IgG2
As for B7, in test [4], the “Improvement over ref-1” value stood at 0.85 fold. In test [5], this molecule registered a dissociation constant (Kd) of 0.74 nM, a dissociation rate constant (koff) of 0.00067 s⁻¹ and a kon of 931000 M⁻¹ s⁻¹.

B8: PL3 IgG1 (antibody, V domains shown)
VH: QVQLVQSGAEVKKPGSSVKVSCKASGGTFSSYTISWVRQAPGQGLEWMGRIIPILGIANYAQKFQGRVTITADKSTSTAYMELSSLRSEDTAVYYCARSRDGYSFGAFDIWGQGTLVTVSS
VL: QSVVTQPPPVSGAPGQRVTISCTGSSSNIGAGYDVHWYQQLPGTAPKLLIYGNSNRPSGVPDRFSGSKSGTSASLAITGLQAEDEADYYCQSYDSSLSAPVVFGGGTKLTVL
Take B8: the “Improvement over ref-1” value in test [4] was found to be 0.12 fold. Also, in test [5], the Kd was found to be 5.46 nM, the dissociation rate constant (koff) amounted to 0.00291 s⁻¹ and the kon worked out at 542000 M⁻¹ s⁻¹.

B9: PL3 IgG2 (antibody, V domains shown)
VH: QVQLVQSGAEVKKPGSSVKVSCKASGGTFSSYTISWVRQAPGQGLEWMGRIIPILGIANYAQKFQGRVTITADKSTSTAYMELSSLRSEDTAVYYCARSRDGYSFGAFDIWGQGTLVTVSS
VL: QSVVTQPPPVSGAPGQRVTISCTGSSSNIGAGYDVHWYQQLPGTAPKLLIYGNSNRPSGVPDRFSGSKSGTSASLAITGLQAEDEADYYCQSYDSSLSAPVVFGGGTKLTVL
notes: Human IgG2
Take B9: the “Improvement over ref-1” value in test [4] was determined as 0.1 fold. Also, in test [5], the Kd amounted to 6.64 nM, the off-rate (koff) worked out at 0.00277 s⁻¹ and the kon amounted to 417000 M⁻¹ s⁻¹.

B10: PL8 (full-length, N297A mutant human IgG1) (antibody, V domains shown)
VH: EVQLVQSGAEVKKPGSSVKVSCKASGGTFSSYAISWVRQAPGQGLEWMGRIIPIFGTANYAQKFQGRVTITADESTSTAYMELSSLRSEDTAVYYCAREGVLDAFDIWGQGTMVTVSS
VL: LSSELTQDPAVSVALGQTVRITCQGDSLRSYYVSWYQQKPGQAPVLVLYGKNNRPSGIPDRFSGSSSGSTASLTITGAQAEDEADYYCNSRDSTGNLLRVFGGGTKLTVLG
Regarding B10, in test [1], the dissociation constant (Kd) came out at 8.85 nM, the off-rate constant (koff) was determined as 0.00348 s⁻¹ and the on-rate (kon) stood at 382000 M⁻¹ s⁻¹.
